Measurements as given in patent publication US12723105 (BEIJING STARMAB BIOMED TECHNOLOGY, dated 2026).

T1: human LAG3 (human, UniProt P18627 29-450, limits assumed)
T1 construct: also called hLAG3
T1 sequence: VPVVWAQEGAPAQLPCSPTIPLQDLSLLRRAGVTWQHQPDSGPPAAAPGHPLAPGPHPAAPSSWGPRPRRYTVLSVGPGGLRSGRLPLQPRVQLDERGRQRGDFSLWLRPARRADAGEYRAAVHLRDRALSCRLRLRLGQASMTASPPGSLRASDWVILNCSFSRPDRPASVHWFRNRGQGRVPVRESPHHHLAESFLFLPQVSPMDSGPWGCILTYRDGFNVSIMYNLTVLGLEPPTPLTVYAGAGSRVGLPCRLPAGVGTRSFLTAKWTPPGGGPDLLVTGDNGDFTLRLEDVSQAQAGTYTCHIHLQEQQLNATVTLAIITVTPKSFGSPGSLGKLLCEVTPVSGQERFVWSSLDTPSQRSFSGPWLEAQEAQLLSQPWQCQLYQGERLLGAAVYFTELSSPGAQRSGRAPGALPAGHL


target: T1, human LAG3; test: BLI (Octet) as in Examples 1-4, His-tagged VHH, human LAG3

Kd	koff	kon	Binder
630 nM	0.021 s⁻¹	33300 M⁻¹ s⁻¹	LG2 (VHH, not shown: C-terminal His-tag) VHH: QVQLVESGGGLVQPGGSLRLSCAASGTIFSINAMGWYRQAPGKQRELVAIVTFGGSTNYADSVKGRFTISRDNAKNTVYLQMNSLKPEDTAVYYCSARNVQSPVQYHLAVWGQGTLVTVSS
2.71 nM	0.000298 s⁻¹	110000 M⁻¹ s⁻¹	hLG9 (VHH, also called LG9H; not shown: C-terminal His-tag) VHH: EVQLLESGGGLVQPGGSLRLSCAASGSTIDDYPMSWFRQAPGKGREGVAAIDDSDESTYYADSVKGRFTISRDNSKNTLYLQMNSLRAEDTAVYYCARGAIFMIDGVDVFLTYYYDSWGQGTLVTVSS
0.0792 nM	2.91e-05 s⁻¹	367000 M⁻¹ s⁻¹	LG99 (VHH, not shown: C-terminal His-tag) VHH: EVQLLESGGGLVQPGGSLRLSCAASGSTIDDYPMSWFRQAPGKGREGVAAIDDSDESTYYADSVKGRFTISRDNSKNTLYLQMNSLRAEDTAVYYCARGALFMIDGVDVFLTYYFEFWGQGTLVTVSS
1.77 nM	0.00011 s⁻¹	62100 M⁻¹ s⁻¹	LG9 (VHH, not shown: C-terminal His-tag) VHH: EVQLVESGGGLVQPGGSLRLSCAASGSTIDDYPIGWFRQAPGKEREGVSCIDDSDESTYYADSVKGRFTISRDNAKNTVYLQMNSLKPEDTAVYYCARGAIFMIDGVDVFLTYYYDSWGQGTQVTVSS
0.114 nM	1.09e-05 s⁻¹	87000 M⁻¹ s⁻¹	LG19 (VHH, not shown: C-terminal His-tag) VHH: QVQLVESGGGLVQPGGSLRLSCAASGFTLDYYAIGWFRQAPGKEREGVSCISSSDGSTYYADSVKGRFTISRDNAKNTVYLQMNSLKPEDTAVYYCAADRRGSCRQYDYWGQGTQVTVSS
2.98 nM	9.82e-05 s⁻¹	33000 M⁻¹ s⁻¹	LG-D8 (VHH, not shown: C-terminal His-tag) VHH: QVQLVESGGGLVQPGGSLRLSCAASGFTFGKYAMSWVRQVPDKGLEWVSSISSSGRDTSYADSAKGRFTIFRNNAANTVYLQMDNLKLEDTGVYYCVKCLEVWATREYDGWGQGTQVTVSS
0.267 nM	1.14e-05 s⁻¹	42700 M⁻¹ s⁻¹	LG22 (VHH, not shown: C-terminal His-tag) VHH: EVQLVESGGGLVQPGGSLRLSCAASGFTLDYYAIGWFRQAPGKEREGVSCIINSDGSTYYADSVKGRFTISRDNAKNTVYLQMNSLKPEDTAVYYCATDRYSDCRGPYDYWGQGTQVTVSS
19 nM	0.000522 s⁻¹	27500 M⁻¹ s⁻¹	LG6 (VHH, not shown: C-terminal His-tag) VHH: EVQLVESGGGLVQAGGSLRLSCAVSGSIFSISTMGWYRQAPGKQRELVASITARGSADYADSVKGRFTISRDNAKNTVYLQMSSLKPEDTAVYYCNTDTRSTLYHYSWGQGTQVTVSS

target: T2, human CD47 (R & D systems) (human, UniProt Q08722 19-139); test: BLI (Octet), His-tagged VHH on anti-penta-His tips, soluble human CD47
T2 construct: The Octet analyte was bought (R&D Systems); also called Human CD47 antigen; hCD47

Kd	koff	kon	Binder
0.063 nM	2.1e-06 s⁻¹	33300 M⁻¹ s⁻¹	A09-08 (VHH, not shown: C-terminal His-tag) VHH: QVQLVESGGGLVQAGGSLRLSCAASGYGVNSYALGWFRQAPGKEREFVAAISRSGGNINYADSAKGRFTISRDNFKNTTYLQMSSLKPEDTAVYYCAAHYLLLPSYISTSTNMYNYWGQGTQVTVSS
19 nM	0.000522 s⁻¹	27500 M⁻¹ s⁻¹	A09-31 (VHH, not shown: C-terminal His-tag) VHH: QVQLVESGGGLVQAGGSLRLSCAASGYGVNSYALGWFRQAPGKEREFVAAISRSGGNINYADSAKGRFTISRDNFKNTTYLQMSSLKPEDTAVYYCAAHYLLLPSYIATAIKMYNYWGQGTQVTVSS
1.77 nM	0.00011 s⁻¹	62100 M⁻¹ s⁻¹	A09-61 (VHH, not shown: C-terminal His-tag) VHH: QVQLVESGGGLVQAGGSLRLSCAASGYGVNSYALGWFRQAPGKEREFVAAISRSGGNINYADSAKGRFTISRDNFKNTTYLQMSSLKPEDTAVYYCAAHYLLLPSYISFASKMYNYWGQGTQVTVSS
0.0114 nM	1.09e-06 s⁻¹	87000 M⁻¹ s⁻¹	A09-006 (VHH, also called A09-06; not shown: C-terminal His-tag) VHH: QVQLVESGGGLVQAGGSLRLSCAASGIRFFGSALGWFRQAPGKEREFVAAISRSGGNINYADSAKGRFTISRDNFKNTTYLQMSSLKPEDTAVYYCAAHYLLLPSYISTSTNMYNYWGQGTQVTVSS
0.0267 nM	1.14e-06 s⁻¹	42700 M⁻¹ s⁻¹	A09-10 (VHH, not shown: C-terminal His-tag) VHH: QVQLVESGGGLVQAGGSLRLSCAASGGGRTFSNYALGWFRQAPGKEREFVAAISRSGGNINYADSAKGRFTISRDNFKNTTYLQMSSLKPEDTAVYYCAAHYLLLPSYISTSTNMYNYWGQGTQVTVSS
0.0276 nM	1.1e-06 s⁻¹	39800 M⁻¹ s⁻¹	hA09-10 (VHH, also called humanized A09-10; not shown: C-terminal His-tag) VHH: EVQLVESGGGLVQPGGSLRLSCAASGGGRTFSNYALGWFRQAPGKEREFVAAISRSGGNINYADSVKGRFTISRDNAKNTVYLQMSSLRAEDTAVYYCAAHYLLLPSYISTSTNMYNYWGQGTQVTVSS

target: Human CD33 (human, UniProt P20138 18-259); test: BLI (Octet) as in Example 1, His-tagged VHH, human CD33
Sequence (P20138 18-259 limits assumed): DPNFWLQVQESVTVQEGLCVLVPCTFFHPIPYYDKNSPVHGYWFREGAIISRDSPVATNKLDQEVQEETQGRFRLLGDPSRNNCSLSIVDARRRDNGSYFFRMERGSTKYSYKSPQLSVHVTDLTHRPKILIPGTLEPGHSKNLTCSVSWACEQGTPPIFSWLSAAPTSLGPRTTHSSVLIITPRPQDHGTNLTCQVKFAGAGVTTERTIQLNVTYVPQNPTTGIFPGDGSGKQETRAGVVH

Kd	koff	kon	Binder
0.136 nM	0.000109 s⁻¹	800000 M⁻¹ s⁻¹	33-14 (VHH, not shown: C-terminal His-tag) VHH: QVQLVESGGGLVQAGDSLKLSCAASGRTSLILAMAWWRQAPGKEREFAGRIWWNNDMTRYSDSVKGRFTISKDNTKNMVYLRMDNLGPEDTAVYYCEADLIGGSRGWGQGTQVTVSS
0.753 nM	0.0006 s⁻¹	800000 M⁻¹ s⁻¹	33-2 (VHH, not shown: C-terminal His-tag) VHH: QVQLVESGGGLVQAGGSLRLSCTASANILRTAPMAWYRQAPGKQREFVALITADGTTDYQESVKGRFTTSRDNAKNTVYLQMNSLQSEDTARYFCKVYSYWGQGTQVTVSS
0.511 nM	0.0007 s⁻¹	1.1e+06 M⁻¹ s⁻¹	33-8 (VHH, not shown: C-terminal His-tag) VHH: EVQLMESGGGLVQAGGSLRLSCAASGRTVSTYVMGWFRQAPGKEREFVAEINRIGDTLYNRTSVKGRFTISRDNAKNTVYLQMNSLEPEDTAVYSCAARVIGTSTYNYWGQGTQVTVSS
1.01 nM	0.00081 s⁻¹	800000 M⁻¹ s⁻¹	33-1 (VHH, not shown: C-terminal His-tag) VHH: QVQLVESGGGLVQTGGSLRLSCAASGGTFTNYAMGWFREAPGKEREFVAGINNNGDTLYNTNSVKGRFTISRDNAKNTVYLHMNSLKLEDTAVYYCAANLKGASWYSANYDYWGQGTQVTVSS
0.409 nM	0.0005 s⁻¹	1e+06 M⁻¹ s⁻¹	33-13 (VHH, not shown: C-terminal His-tag) VHH: QVQLVESGGGLVQAGGSLRLSCAASGSISSINSMNWYRQAPGKQREKVAGINSSGDTNYVDSVKGRFTISRDNAERTTYLQMNNLKPEDTGLYYCNADPRPWPNDVAFGSWGQGTRVTVSS
0.995 nM	0.0009 s⁻¹	900000 M⁻¹ s⁻¹	33-4 (VHH, not shown: C-terminal His-tag) VHH: QVQLVESGGGSVQPGGSLRLSCEASGSIFSIAHMGWYRQAPGKQRELVAVISSGGRTNYVDSVKGRFTISRDNAKNTVYLQMNSLKAEDTAVYFCNVAVVGGPRFDYWGQGTQVTVSS
